{"source": "patent US20260049134A1", "about": "(UNIVERSITY OF FLORIDA RESEARCH FOUNDATION, published 2026)", "binders": {"B1": {"name": "HW-25 Fab (chimeric rabbit/human, His-tagged) (Fab, V domains shown)", "VH": "QSLEESGGRLVTPGTPLTLTCTVSGFSLSSYAMGWVRQAPGKGLEWIGIIDSRGSTYYATWAKGRFTISKTSTTVDLKITSPTTEDTATYFCAREDSYYYDSFNLWGPGTLVTVSS", "VL": "SFVLTQPASVQVNLGQTVSLTCTADTLSRRYASWYQQKPGQAPVLLIYRDTSRPSGVPDRFSGSSSGNTATLTISGAQAGDEADYYCATSDGSGSSYQCVFGGGTQLTVT", "notes": "Monovalent Fab: rbVH-huCH1 and rbVL-huCL, His-tagged, made in E. coli from pET11a"}, "B2": {"name": "HW-17 Fab (chimeric rabbit/human, His-tagged) (Fab, V domains shown)", "VH": "QSLGESRGRLVTPDETLTLTCTVSGIDLSSNAMSWVRQAPGEGLEWIGTINTGGRAYYASWAKGRFTISRTSTTVDLKMTSLTTEDTATYFCARERYSDGRAYDIWGPGTLVTISS", "VL": "B1 VL with R49T, T51S, S52N, V57I, S90D, S96I, C99Y", "notes": "as for B1"}, "B3": {"name": "HW-70 Fab (chimeric rabbit/human, His-tagged) (Fab, V domains shown)", "VH": "QSLEESGGRLVTPGTPLTLTCTVSGFSLSSNAMSWVRQAPGKGLEWIGTIDGYGYTYYASWAKGRFTVSKTSTTVDLKITSPTTEDTATYFCAREIYLGSNFWGPGTLVTISS", "VL": "B1 VL with S90A, C99F", "notes": "as for B1"}, "B4": {"name": "HW-42 Fab (chimeric rabbit/human, His-tagged) (Fab, V domains shown)", "VH": "QSVKESEGGLFKPADTLTLTCTVSGFSLSSNEISWVRQAPGEGLEYIGIIDTGGRAYYAVWARSRSTITRNTNLNTVTLKMTSLTAADTATYFCARGGVDTEWYAFSSWGPGTLVTVPS", "VL": "B1 VL with Y48F, N68D, S96N, C99Y", "notes": "as for B1"}, "B5": {"name": "HW-1 Fab (chimeric rabbit/human, His-tagged) (Fab, V domains shown)", "VH": "QSLEESGGGLFKPTDTLTLTCTASGFSLGSSYAISWVRQAPGKELEWIGTIDSGRAYYARWAKSRSTITRNTNENTVTLKMTSLTAADTATYFCARDLIPTYSQDIWGPGTLVTISS", "VL": "B1 VL with S95N, C99Y", "notes": "as for B1"}}, "note": "Where a chain is given by its changes, count along the chain named."}
{"biological_target": "T1, PTPRG-Fc (ECD of human PTPRG, aa 20-736, fused to human Fc gamma 1) (human, UniProt P23470 20-736)", "T1 construct": "Made in-house in Expi293 cells; Used in ELISA and SPR; also called recombinant PTPRG-Fc; PTRPG; not shown: human IgG1 Fc (Fc gamma 1) after the hinge", "T1 sequence": "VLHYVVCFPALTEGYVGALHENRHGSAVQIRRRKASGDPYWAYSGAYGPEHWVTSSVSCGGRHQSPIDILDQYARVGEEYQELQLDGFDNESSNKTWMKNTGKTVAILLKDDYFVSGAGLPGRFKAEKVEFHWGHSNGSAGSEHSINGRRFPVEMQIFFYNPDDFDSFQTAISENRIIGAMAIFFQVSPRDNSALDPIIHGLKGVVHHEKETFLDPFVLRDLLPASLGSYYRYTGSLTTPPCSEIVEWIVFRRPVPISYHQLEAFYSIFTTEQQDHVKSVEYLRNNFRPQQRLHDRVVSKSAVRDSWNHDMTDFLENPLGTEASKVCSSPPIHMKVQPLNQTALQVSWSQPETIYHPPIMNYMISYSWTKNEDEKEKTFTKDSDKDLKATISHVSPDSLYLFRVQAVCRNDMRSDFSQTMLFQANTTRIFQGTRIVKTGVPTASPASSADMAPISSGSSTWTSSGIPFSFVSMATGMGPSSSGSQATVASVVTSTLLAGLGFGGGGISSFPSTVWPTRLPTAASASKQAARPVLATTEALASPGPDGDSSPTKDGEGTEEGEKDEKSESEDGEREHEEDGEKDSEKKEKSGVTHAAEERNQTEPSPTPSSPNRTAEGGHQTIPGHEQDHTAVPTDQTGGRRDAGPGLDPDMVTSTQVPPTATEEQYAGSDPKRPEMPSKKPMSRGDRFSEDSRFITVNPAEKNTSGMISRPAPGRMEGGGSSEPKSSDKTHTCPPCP", "assay": "SPR, Biacore X100; PTPRG-Fc captured by anti-human Fc on CM5, Fab injected; mean of triplicates (SD)", "description": "A Biacore X100 instrument was used to determine the monovalent affinities of the C-1 cluster of Fabs for recombinant PTPRG-Fc, as previously described. […] Each experiment was repeated in triplicate. Rate constants (kₒₙ, koff, and Kd) were calculated using the Biacore evaluation software (Cytiva).", "units": {"Kd": "nM", "koff": "s⁻¹", "kon": "M⁻¹ s⁻¹"}}
{"binder": "B1", "Kd": 0.65, "koff": 0.000367, "kon": 566000}
{"binder": "B2", "Kd": 9.34, "koff": 0.00158, "kon": 169000}
{"binder": "B3", "Kd": 19.1, "koff": 0.0153, "kon": 826000}
{"binder": "B4", "Kd": 28.9, "koff": 0.00429, "kon": 149000}
{"binder": "B5", "Kd": 2.54, "koff": 0.000482, "kon": 195000}
